Test results reported in US20110039770A1, “INHIBITORS OF PROTEIN KINASE C ISOFORMS AND USES THEREOF” (PHARMAGAP INC., priority 2005, published 2011).
Where a SMILES comes first, the peptide text is derived from it. [ ]: non-standard residue; d: D form.

What was measured:
Assay in all cases: Competitive binding assay using cell extracts (Western blot)
Settings in all cases: Cell extract; PRE 10X or 20X antibody concentration
[1] = tested on: PKC-βII; parameters: species or system human; key: —: no detectable affinity; Low to very low affinity at 10X or 20X or both PRE concentrations in at least one cell line in the cell extract assay; Low affinity in purified isoform assay.; Moderate affinity at 10X or 20X or both PRE concentrations in at least one cell line in the cell extract assay.; High affinity at 10X or 20X or both PRE concentrations in at least one cell line in the cell extract assay; High affinity in purified isoform assay
Method: (§1) Binding efficiency and specificity of the peptides PRE 2, 3, 4, 5, 6, 7, 8, 9, 10, 11, 12 and 13 (see Table 4) was also tested using cytoplasmic extracts from different cell lines expressing appropriate PKC isoforms as described for Example 1. Briefly, the protein cytoplasmic extracts were separated by electrophoresis and transferred onto nitrocellulose membranes by standard Western blotting procedures. The bands on the Western blots were detected with matching primary antibodies and alkaline phosphatase conjugated secondary antibody. The bands were then scanned and the relative density measurements obtained.
(§2) This procedure to assess the binding characteristics of the PREs is based on competition binding of the PRE with the primary anti-isoform PKC specific antibodies. The lower the measured band density, the greater the binding of the PRE to the PKC isoform. The PREs were added at 10 and 20 times (10×, 20×) the primary antibody concentration, according to classical competition between antigenic peptide and primary antibody. The following cell lines (obtained from the ATCC) were used: H661—NCI human lung carcinoma NSCLC; MDAMB231—human highly invasive breast cancer cell line from pleural effusion; LS180—human colon adenocarcinoma; LnCAP—human prostate adenocarcinoma; CCD16Lu—human lung fibroblasts; Du145—human prostate carcinoma brain metastasis, and T24—human bladder carcinoma.
(§3) In these cases, the 20× band density figures relative to control and 10× values were reliable.

[2] = molecular target: PKC-βI (Homo sapiens, UniProt P05771); parameters: PKC-βII by PRE 3 and PRE 4 in IMR-32 Neuroblastoma; endogenous in cells; host or cells: IMR-32 human neuroblastoma cells; key: —: no detectable affinity; Low to very low affinity at 10X or 20X or both PRE concentrations in at least one cell line in the cell extract assay; Low affinity in purified isoform assay.; Moderate affinity at 10X or 20X or both PRE concentrations in at least one cell line in the cell extract assay.; High affinity at 10X or 20X or both PRE concentrations in at least one cell line in the cell extract assay; High affinity in purified isoform assay
[3] = molecular target: T1, PKC-ε (Homo sapiens, UniProt Q02156); parameters: cytoplasmic extracts from different cell lines expressing appropriate PKC isoforms; endogenous in cells; host or cells: CCD16Lu, LnCAP, Du145, MDAMB231, LS180; key: —: no detectable affinity; Low to very low affinity at 10X or 20X or both PRE concentrations in at least one cell line in the cell extract assay; Low affinity in purified isoform assay.; Moderate affinity at 10X or 20X or both PRE concentrations in at least one cell line in the cell extract assay.; High affinity at 10X or 20X or both PRE concentrations in at least one cell line in the cell extract assay; High affinity in purified isoform assay
T1 sequence (Q02156 1-737): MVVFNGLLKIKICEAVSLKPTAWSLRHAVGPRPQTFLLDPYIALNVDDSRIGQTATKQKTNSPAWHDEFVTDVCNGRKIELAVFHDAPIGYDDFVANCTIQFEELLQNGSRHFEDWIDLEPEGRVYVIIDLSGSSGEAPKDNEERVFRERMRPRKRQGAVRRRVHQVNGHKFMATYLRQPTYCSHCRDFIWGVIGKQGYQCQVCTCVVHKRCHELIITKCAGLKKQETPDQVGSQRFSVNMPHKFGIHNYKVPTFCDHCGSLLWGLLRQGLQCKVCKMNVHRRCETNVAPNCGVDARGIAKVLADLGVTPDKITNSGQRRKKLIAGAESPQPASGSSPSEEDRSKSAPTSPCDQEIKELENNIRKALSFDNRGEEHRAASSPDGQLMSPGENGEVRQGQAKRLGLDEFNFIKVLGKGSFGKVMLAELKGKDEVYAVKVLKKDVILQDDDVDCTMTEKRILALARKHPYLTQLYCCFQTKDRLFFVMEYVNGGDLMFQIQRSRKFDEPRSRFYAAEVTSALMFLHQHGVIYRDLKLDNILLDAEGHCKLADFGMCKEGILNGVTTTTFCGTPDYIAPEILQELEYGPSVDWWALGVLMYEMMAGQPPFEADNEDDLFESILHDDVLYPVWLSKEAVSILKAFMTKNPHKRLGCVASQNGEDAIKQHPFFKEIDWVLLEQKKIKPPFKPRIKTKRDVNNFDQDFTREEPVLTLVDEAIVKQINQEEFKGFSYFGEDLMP
Method: as §1, §2, §3

PKC-βI, sequence (P05771 whole entry, canonical isoform): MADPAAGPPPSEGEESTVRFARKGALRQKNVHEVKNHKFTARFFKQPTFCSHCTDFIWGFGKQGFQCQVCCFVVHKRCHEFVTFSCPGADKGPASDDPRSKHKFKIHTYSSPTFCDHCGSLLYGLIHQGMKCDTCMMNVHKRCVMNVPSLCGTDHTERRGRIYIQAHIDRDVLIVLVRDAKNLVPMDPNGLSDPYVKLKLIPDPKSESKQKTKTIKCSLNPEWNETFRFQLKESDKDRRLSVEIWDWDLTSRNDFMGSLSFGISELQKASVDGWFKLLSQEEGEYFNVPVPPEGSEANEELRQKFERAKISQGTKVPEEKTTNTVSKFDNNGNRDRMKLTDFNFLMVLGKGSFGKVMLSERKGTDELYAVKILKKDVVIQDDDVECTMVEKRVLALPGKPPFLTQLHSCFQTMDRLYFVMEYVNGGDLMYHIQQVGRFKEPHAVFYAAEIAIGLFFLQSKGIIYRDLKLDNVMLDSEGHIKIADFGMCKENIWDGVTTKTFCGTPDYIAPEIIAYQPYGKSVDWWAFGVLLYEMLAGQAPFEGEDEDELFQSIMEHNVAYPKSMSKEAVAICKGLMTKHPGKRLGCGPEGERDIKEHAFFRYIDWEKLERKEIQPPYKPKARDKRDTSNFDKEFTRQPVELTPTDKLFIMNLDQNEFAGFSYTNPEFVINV

Row | Affinity for PKC isoform βI [2] | Affinity for PKC isoform ε [3] | Compound | Affinity for PKC isoform βII [1]
1 | L | L | CC[C@H](C)[C@H](NC(=O)[C@H](CO)NC(=O)[C@@H](NC(=O)CNC(=O)[C@@H](NC(=O)[C@H](CC(C)C)NC(=O)[C@H](CC(N)=O)NC(=O)[C@H](CCC(N)=O)NC(=O)[C@H](C)NC(=O)[C@H](CC(=O)O)NC(=O)CNC(=O)CNC(=O)[C@H](CCCCN)NC(=O)[C@@H](NC(=O)[C@H](CCC(=O)O)NC(=O)[C@H](CCC(N)=O)NC(=O)[C@@H](NC(=O)CNC(=O)[C@H](CCCCN)NC(=O)[C@H](C)NC(C)=O)[C@@H](C)CC)C(C)C)[C@@H](C)CC)[C@@H](C)CC)C(N)=O [PRE 3] (Ac-AKGIQEVKGGDAQNLIGISI-NH2) | L
2 | H | H/L | CC[C@H](C)[C@H](NC(=O)[C@H](CO)NC(=O)[C@@H](NC(=O)CNC(=O)[C@@H](NC(=O)[C@H](CC(C)C)NC(=O)[C@H](CC(N)=O)NC(=O)[C@H](CCC(N)=O)NC(=O)[C@H](C)NC(=O)[C@H](CC(=O)O)NC(=O)[C@H](CCCCN)NC(C)=O)[C@@H](C)CC)[C@@H](C)CC)C(N)=O [PRE 4, Ac-KDAQNLIGISI-NH2] (Ac-KDAQNLIGISI-NH2) | L
3 | H | L | CC[C@H](C)[C@H](NC(=O)[C@H](CO)NC(=O)[C@@H](NC(=O)CNC(=O)[C@@H](NC(=O)[C@H](CC(C)C)NC(=O)[C@H](CC(N)=O)NC(=O)[C@H](CCC(N)=O)NC(=O)[C@H](C)NC(=O)[C@H](CC(=O)O)NC(=O)[C@H](CCCCN)NC(=O)CNC(=O)CNC(=O)[C@H](CCCCN)NC(=O)[C@@H](NC(=O)[C@H](CCC(=O)O)NC(=O)[C@H](CCC(N)=O)NC(=O)[C@@H](NC(=O)CNC(=O)[C@H](CCCCN)NC(=O)[C@H](C)NC(C)=O)[C@@H](C)CC)C(C)C)[C@@H](C)CC)[C@@H](C)CC)C(N)=O [PRE 5] (Ac-AKGIQEVKGGKDAQNLIGISI-NH2) | H
4 | M | M/L | Ac-ISIGILNQADK-NH2 [PRE 10] | —
5 | — | — | Ac-ISIGILQNADK-NH2 (not fully specified; printed as Ac-ISIGILQNADK-NH2) [PRE 7] | 
6 | H | M | Ac-KDANQLIGISI-NH2 [PRE 6] | 
7 | — | — | Ac-KDAQNLI-NH2 [PRE 12] | L
8 | — | — | Ac-RDAQNLI-NH2 [PRE 13] | 
9 | H | — | Ac-RDAQNLIGISI-NH2 [PRE 11] | 
10 | M | M/L | Ac-isigilqnadk-NH2 (Ac-[dI][dS][dI]G[dI][dL][dQ][dN][dA][dD][dK]-NH2; SMILES CC[C@@H](C)[C@@H](NC(C)=O)C(=O)N[C@H](CO)C(=O)N[C@@H](C(=O)NCC(=O)N[C@@H](C(=O)N[C@H](CC(C)C)C(=O)N[C@H](CCC(N)=O)C(=O)N[C@H](CC(N)=O)C(=O)N[C@H](C)C(=O)N[C@H](CC(=O)O)C(=O)N[C@H](CCCCN)C(N)=O)[C@H](C)CC)[C@H](C)CC) [PRE 9] | —
11 |  | L | ILEDKGGDAQNLIGISI [PRE 8] | H
12 | H |  | RRKKGGKDFVVKR [PRE 1] | 
